Biological target: T1, recombinant human CD154 protein (human, UniProt P29965 47-261, limits assumed)
T1 construct: This protein was immobilised on the SPR chip; also called human CD154 antigen
T1 sequence: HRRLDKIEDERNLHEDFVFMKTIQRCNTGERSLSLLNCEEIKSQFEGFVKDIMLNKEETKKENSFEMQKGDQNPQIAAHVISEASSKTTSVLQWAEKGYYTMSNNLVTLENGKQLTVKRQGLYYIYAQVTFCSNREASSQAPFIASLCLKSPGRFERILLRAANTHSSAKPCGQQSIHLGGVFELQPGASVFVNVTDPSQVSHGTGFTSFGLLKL
Assay: SPR (Reichert SR7500DC), CD154 immobilised on chip, antibody in flow
Procedure: The binding affinity KD of each of the RD-05 mouse antibody and IgG4 and IgG4 (L115E) RD-05 chimeric antibodies, produced as described above, for human CD154 antigen, was measured using an SPR method by Woojung BSC, Inc. (Suwon, Gyeonggi-do, Korea). Specifically, 17.5 μg/ml of recombinant human CD154 protein in immobilization buffer (10 mM sodium acetate, pH 6.0) was attached to a CMDH gold chip (Cat#13206066, Reichert Technologies, Depew, N.Y., USA) at a density of 2300 RU (resonance unit; 1 RU=1 pg/mm² surface area), after which 3.125 μg/ml of bovine serum albumin was attached at a density of 650 RU. The RD-05 antibody was diluted in PBS at […], 1.25, 2.5, 5, 10, 20, 40, 80, 160, 320, 2560 and 5120 nM. […] Based on the determined values, the KD values were calculated.

B1: RD-05 mouse antibody (antibody, V domains shown)
VH: DVQLQESGPGLVKPSQSLSLTCTVTGYSITSDYAWNWIRQFPGNKLEWMGYITYSGTTSYNPSLKSRISLTRDTSKNQFFLQLNAVTTEDTATYYCARSPYYGPWYFDVWGAGTTVTVSS
VL: DIVLTQSPASLTVSLGQRATISCKASQSVDYDGDSYLHWYQQKPGQPPKLLIYAASYLESGIPARFSGSGSGTDFTLNIHPVEEEDAATYYCQQSNEDPNTFGGGTKLEIKR
notes: Mouse monoclonal antibody from the hybridoma, kappa light chain; also called mouse RD-05 antibody; anti-human CD154 antibody
In the case of B1, the Kd is reported as 37 nM.
